The source of these data is patent publication US20260035433A1.

In the assay the target is His-Tagged rhFc(gamma) receptor I (recombinant human Fc(gamma)R-I; Acro Biosystems, catalog# FCA-H52H1) (human). The assay can be described thus: ELISA, fusion protein coated at 10 ug/mL, His-tagged rhFc(gamma)RI in solution, anti-His-HRP. On the technique in general: ELISA stands for enzyme-linked immunosorbent assay.
Chain of His-Tagged rhFc(gamma) receptor I (recombinant human Fc(gamma)R-I; Acro Biosystems, catalog# FCA-H52H1) (human) (P12314 16-292): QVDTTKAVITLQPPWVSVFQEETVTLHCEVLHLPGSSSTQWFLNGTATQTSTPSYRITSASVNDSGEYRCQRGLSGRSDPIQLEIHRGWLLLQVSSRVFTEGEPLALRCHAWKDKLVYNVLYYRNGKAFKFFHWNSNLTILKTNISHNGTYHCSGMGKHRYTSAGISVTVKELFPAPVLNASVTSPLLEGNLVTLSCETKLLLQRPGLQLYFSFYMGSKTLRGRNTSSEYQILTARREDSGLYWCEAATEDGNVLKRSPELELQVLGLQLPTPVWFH

B1: PD-L1 analog-Fc fusion protein of SEQ ID NO: 24 (Fc fusion)
chain: LIGYGGADYKRITLKVHAPYRNISQRISVDPVTSEHELMCQAEGYPEAEVIWTSSDHRVLSGKTTITNSNREEKLFNVTSTLNINATANEIFYCTFQRSGPEENNTAELVIPERLPVPASERTHFMILGPFGGGGQGGGSGGQGGGGGDCPKCPAPEMLGGPSVFIFPPKPKDTLLIARTPEVTCVVVDLDPEDPEVQISWFVDGKQMQTAKTQPREEQFNGTYRVVSVLPIGHQDWLKGKQFTCKVNNKALPSPIERTISKARGQAHQPSVYVLPPSREELSKNTVSLTCLIKDFFPPDIDVEWQSNGQQEPESKYRTTPPQLDEDGSYFLYSKLSVDKSRWQRGDTFICAVMHEALHNHYTQESLSHSPG
Take B1: the OD450 at 222 ng/ml Fc(gamma) RI worked out at 1.49 OD450.

B2: PD-L1 analog-Fc fusion protein of SEQ ID NO: 21 (Fc fusion)
chain: LIGYGGADYKRITLKVHAPYRNISQRISVDPVTSGGGGQGGGSGGQGGGGGDCPKCPAPEMLGGPSVFIFPPKPKDTLLIARTPEVTCVVVDLDPEDPEVQISWFVDGKQMQTAKTQPREEQFNGTYRVVSVLPIGHQDWLKGKQFTCKVNNKALPSPIERTISKARGQAHQPSVYVLPPSREELSKNTVSLTCLIKDFFPPDIDVEWQSNGQQEPESKYRTTPPQLDEDGSYFLYSKLSVDKSRWQRGDTFICAVMHEALHNHYTQESLSHSPG
For the molecule B2, the OD450 at 222 ng/ml Fc(gamma) RI stood at 2.05 OD450.

B3: PD-L1 analog-Fc fusion protein of SEQ ID NO: 22 (Fc fusion)
chain: FTITVSKDLYVVEYGGNVTMECKFPVEKQLNLFALIVYWEMEDKKIIQFVNGKEDLKVQHSSYSQRAQLLKDQLFLGKAALQITDVRLQDAGVYRCLIGYGGADYKRITLKVHAPYRNISQRISVDPVTSQGGGSGGQDCPKCPAPEMLGGPSVFIFPPKPKDTLLIARTPEVTCVVVDLDPEDPEVQISWFVDGKQMQTAKTQPREEQFNGTYRVVSVLPIGHQDWLKGKQFTCKVNNKALPSPIERTISKARGQAHQPSVYVLPPSREELSKNTVSLTCLIKDFFPPDIDVEWQSNGQQEPESKYRTTPPQLDEDGSYFLYSKLSVDKSRWQRGDTFICAVMHEALHNHYTQESLSHSPG
As to B3, the OD450 at 222 ng/ml Fc(gamma) RI came to 1.91 OD450.

B4: PD-L1 analog-Fc fusion protein of SEQ ID NO: 26 (Fc fusion)
chain: FTITVSKDLYVVEYGGNVTMECKFPVEKQLNLFALIVYWEMEDKKIIQFVNGKEDLKVQHSSYSQRAQLLKDQLFLGKAALQITDVRLQDAGVYRCLIGYGGADYKRITLKVHAPYRNISQRISVDPVTSEHELMCQAEGYPEAEVIWTSSDHRVLSGKTTITNSNREEKLFNVTSTLNINATANEIFYCTFQRSGPEENNTAELVIPERLPVPASERTHFMILGPFQGGGSGGQDCPKCPAPEMLGGPSVFIFPPKPKDTLLIARTPEVTCVVVDLDPEDPEVQISWFVDGKQMQTAKTQPREEQFNGTYRVVSVLPIGHQDWLKGKQFTCKVNNKALPSPIERTISKARGQAHQPSVYVLPPSREELSKNTVSLTCLIKDFFPPDIDVEWQSNGQQEPESKYRTTPPQLDEDGSYFLYSKLSVDKSRWQRGDTFICAVMHEALHNHYTQESLSHSPG
For B4, the OD450 at 222 ng/ml Fc(gamma) RI was determined as 1.79 OD450.

B5: PD-L1 analog-Fc fusion protein of SEQ ID NO: 27 (Fc fusion)
chain: FTITVSKDLYVVEYGGNVTMECKFPVEKQLNLFALIVYWEMEDKKIIQFVNGKEDLKVQHSSYSQRAQLLKDQLFLGKAALQITDVRLQDAGVYRCLIGYGGADYKRITLKVHAPYRNISQRISVDPVTSEHELMCQAEGYPEAEVIWTSSDHRVLSGKTTITNSNREEKLFNVTSTLNINATANEIFYCTFQRSGPEENNTAELVIPERLPVPASERTHFMILGPFGGGGQGGGSGGQGGGGGDCPKCPAPEMLGGPSVFIFPPKPKDTLLIARTPEVTCVVVDLDPEDPEVQISWFVDGKQMQTAKTQPREEQFNGTYRVVSVLPIGHQDWLKGKQFTCKVNNKALPSPIERTISKARGQAHQPSVYVLPPSREELSKNTVSLTCLIKDFFPPDIDVEWQSNGQQEPESKYRTTPPQLDEDGSYFLYSKLSVDKSRWQRGDTFICAVMHEALHNHYTQESLSHSPG
B5: the OD450 at 222 ng/ml Fc(gamma) RI was 1.78 OD450.

B6: PD-L1 analog-Fc fusion protein of SEQ ID NO: 32 (Fc fusion)
chain: FTITVSKDLYVVEYGGNVTMECKFPVEKQLNLFALIVYWEMEDKKIIQFVNGKEDLKVQHSSYSQRAQLLKDQLFLGKAALQITDVRLQDAGVYCCLIGYGGADYKRITLKVHAPYRNISQRISVDPVTSEHELMCQAEGYPEAEVIWTSSDHRVLSGKTTITNSNREEKLFNVTSTLNINATANEIFYCTFQRSGPEENNTAELVIPERLPVPASERTHFMILGPFGGGGQGGGSGGQGGGGGDCPKCPAPEMLGGPSVFIFPPKPKDTLLIARTPEVTCVVVDLDPEDPEVQISWFVDGKQMQTAKTQPREEQFNGTYRVVSVLPIGHQDWLKGKQFTCKVNNKALPSPIERTISKARGQAHQPSVYVLPPSREELSKNTVSLTCLIKDFFPPDIDVEWQSNGQQEPESKYRTTPPQLDEDGSYFLYSKLSVDKSRWQRGDTFICAVMHEALHNHYTQESLSHSPG
In the case of B6, the OD450 at 222 ng/ml Fc(gamma) RI came to 1.7 OD450.

B7: PD-L1 analog-Fc fusion protein of SEQ ID NO: 20 (Fc fusion)
chain: FTITVSKDLYVVEYGGNVTMECKFPVEKQLNLFALIVYWEMEDKKIIQFVNGKEDLKVQHSSYSQRAQLLKDQLFLGKAALQITDVRLQDAGVYRCLIGYGGADYKRITLKVHAPYRNISQRISVDPVTSGGGGQGGGSGGQGGGGGDCPKCPAPEMLGGPSVFIFPPKPKDTLLIARTPEVTCVVVDLDPEDPEVQISWFVDGKQMQTAKTQPREEQFNGTYRVVSVLPIGHQDWLKGKQFTCKVNNKALPSPIERTISKARGQAHQPSVYVLPPSREELSKNTVSLTCLIKDFFPPDIDVEWQSNGQQEPESKYRTTPPQLDEDGSYFLYSKLSVDKSRWQRGDTFICAVMHEALHNHYTQESLSHSPG
For B7, the OD450 at 222 ng/ml Fc(gamma) RI is 1.97 OD450.
